Test results taken from publication PMC4139204 (The Journal of Biological Chemistry, 2014).

Biological target: Recombinant RbAp48 (human, UniProt Q09028 1-425)
Experiment: ITC; MTA1 peptide (250 uM) titrated into RbAp48 (25 uM); 25 C; 20 mM Tris pH 7.5, 150 mM NaCl; single-site model
Details: both partners purified

Sequence of Recombinant RbAp48 (Q09028 whole entry): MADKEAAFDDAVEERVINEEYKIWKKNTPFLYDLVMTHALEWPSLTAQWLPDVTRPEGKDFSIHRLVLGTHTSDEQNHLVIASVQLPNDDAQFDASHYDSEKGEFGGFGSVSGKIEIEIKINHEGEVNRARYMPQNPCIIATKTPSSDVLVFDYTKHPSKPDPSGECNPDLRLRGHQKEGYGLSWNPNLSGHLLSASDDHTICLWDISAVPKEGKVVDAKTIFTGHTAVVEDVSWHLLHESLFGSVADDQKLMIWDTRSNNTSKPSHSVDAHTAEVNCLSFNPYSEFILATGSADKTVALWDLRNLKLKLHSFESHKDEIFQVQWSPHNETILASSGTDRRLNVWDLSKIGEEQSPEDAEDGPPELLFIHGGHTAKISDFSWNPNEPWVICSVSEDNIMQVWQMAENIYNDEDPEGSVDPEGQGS

stoichiometry N	Kd [nM]	Binder
1	–	Ac-KLLSSSETKRAARRPYKPIALRQSQALPPRPPPPAPVNDEPI-NH2 (peptide, UniProt Q13330 670-711, looked up) [MTA1-(670-711) peptide]
1	–	Ac-DVFYMATEETRKIRKLLSSSETKRAARRPYK-NH2 (peptide, UniProt Q13330 656-686, looked up) [MTA1-(656-686) peptide]
1	50	Ac-KLLSSSETKRAARRPYKPIALRQSQA-NH2 (peptide, UniProt Q13330 670-695, looked up) [MTA1-(670-695) peptide]
